Reference: PMC9651861 (Science Advances, 2022)

Target: T1, human serum albumin (Homo sapiens, UniProt P02768)
T1 construct: also called HSA
Experiment: BLI
Settings: both partners purified

Row | Binder | binding result
1 | DesAb-RBD-C2 (VHH) VHH: EVQLEESGGGLVQPGGSLRLSCAASGFNIKDTYIGWVRQAPGKGEEWVASIYPTSGYTRYADSVKGRFTISADTSKNTAYLQMNSLRAEDTAVYYCAAGSVVADLSVEEFDYWGQGTLVTVSS | no binding
2 | DesAb-RBD-C1 (VHH) VHH: EVQLEESGGGLVQPGGSLRLSCAASGFNIKDTYIGWVRQAPGKGEEWVASIYPTSGYTRYADSVKGRFTISADTSKNTAYLQMNSLRAEDTAVYYCAAGSGSSATEVYEEFDYWGQGTLVTVSS | no binding
